Each block holds one binder with its values, some of them ahead of it.
Columns and labels:
CCT3 = biological target: T1, CCT3 (human, UniProt P49368 1-545); assay: co-IP with anti-FLAG, N-FLAG B3GNT2, mass spectrometry
T1 construct: also called NP_005989.3
T1 sequence (looked up): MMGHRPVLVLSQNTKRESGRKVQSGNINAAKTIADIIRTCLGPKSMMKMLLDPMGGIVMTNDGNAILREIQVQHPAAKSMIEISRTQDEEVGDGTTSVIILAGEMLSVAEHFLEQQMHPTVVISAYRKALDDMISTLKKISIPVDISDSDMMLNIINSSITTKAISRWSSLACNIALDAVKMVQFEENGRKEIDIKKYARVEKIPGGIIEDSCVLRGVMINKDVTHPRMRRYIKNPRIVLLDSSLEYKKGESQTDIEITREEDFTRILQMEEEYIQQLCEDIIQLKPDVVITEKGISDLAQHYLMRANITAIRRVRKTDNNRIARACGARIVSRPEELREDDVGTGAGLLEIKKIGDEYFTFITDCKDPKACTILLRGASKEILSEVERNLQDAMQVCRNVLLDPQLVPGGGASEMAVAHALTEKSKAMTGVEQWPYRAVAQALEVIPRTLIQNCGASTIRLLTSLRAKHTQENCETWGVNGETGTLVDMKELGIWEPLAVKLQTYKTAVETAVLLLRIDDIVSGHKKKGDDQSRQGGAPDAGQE

RPL38 = RPL38 (human, UniProt P63173 1-70); assay: as above
RPS26 = RPS26 (human, UniProt P62854 2-115); assay: as above
EIF3A = biological target: T2, EIF3A (human, UniProt Q14152 2-1382); assay: as above
T2 construct: also called NP_003741.1

DDX17 = biological target: T3, DDX17 (human, UniProt Q92841 1-729, limits assumed); assay: as above
T3 construct: also called NP_001091974.1

RPL36 = RPL36 (UniProt Q9Y3U8 2-105); assay: co-IP with anti-FLAG, mass spectrometry; N-FLAG B3GNT2
Experimental: (§1) Cells were plated in 10-cm cell culture dishes and grown to 60-80% confluency. For each condition, two biological replicates were harvested for co-IP. Cells were washed with PBS and 4 mL of lysis buffer (20 mM HEPES, 1% Triton X-100, 150 mM NaCl, 1 mM EDTA, and 10% glycerol) containing protease inhibitor cocktail was added. Cells were scraped and lysate was incubated at 4° C. under rotary agitation for 1 h. Lysate was centrifuged at 14,000×g for 10 min at 4° C. Supernatant was transferred to a new tube and an aliquot was taken as the input. […] For Western blots, 10 μg/mL Chicken Anti-FLAG (Aves labs ET-DY100) and IgY control (R&D Systems AB-101-C) antibodies were biotinylated (Thermo Fisher Scientific 90407) and added to the respective conditions. Lysates with antibodies were incubated at 4° C. under rotary agitation overnight. For each mL of lysate, 50 μL of Pierce Protein A/G Magnetic Beads (Mass spectrometry; Thermo Fisher Scientific 88803) or Pierce Streptavidin Magnetic Beads (Western blot; Thermo Fisher Scientific 88817) was washed twice with lysis buffer. Lysates with antibodies were added to the beads and incubated at 4° C. under rotary agitation for 4 h. Beads were washed with lysis buffer 3 times and resuspended in lysis buffer for storage.
(§2) Magnetic beads were resuspended in 100 mM Tris pH 7.8, reduced, alkylated and digested with trypsin at 37° ° C. overnight. This solution was subjected to solid phase extraction to concentrate the peptides and remove unwanted reagents followed by injection onto a Shimadzu HPLC with fraction collector. Eight fractions were collected and after concentration were injected on a Waters NanoAcquity HPLC equipped with a self-packed Aeris 3 μm C18 analytical column 0.075 mm by 20 cm, (Phenomenex). Peptides were eluted using standard reverse-phase gradients. The effluent from the column was analyzed using a Thermo Orbitrap Elite mass spectrometer (nanospray configuration) operated in a data dependent manner for 54 minutes. The resulting fragmentation spectra were correlated against the known database using Proteome Discover 1.4 (Thermo Fisher Scientific).

RPL11 = RPL11 (UniProt P62913 2-177); assay: as above
Experimental: as §1, §2

RPS15A = RPS15A (UniProt P62244 2-130); assay: as above
Experimental: as §1, §2

LYZ = biological target: T4, LYZ (UniProt P61626 19-148); assay: as above
T4 construct: Protein found in the co-IP by mass spectrometry; also called NP_000230.1
T4 sequence (looked up): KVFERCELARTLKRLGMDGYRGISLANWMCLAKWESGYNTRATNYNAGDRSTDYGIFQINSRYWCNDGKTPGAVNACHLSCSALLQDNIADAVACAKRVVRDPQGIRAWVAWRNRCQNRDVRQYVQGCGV
Experimental: as §1, §2

RPS17 = RPS17 (UniProt P08708 2-135); assay: as above
Experimental: as §1, §2

RPL10A = RPL10A (UniProt P62906 2-217); assay: as above
Experimental: as §1, §2

HBA1 = biological target: T5, HBA1 (UniProt P69905 2-142); assay: as above
T5 construct: Protein found in the co-IP by mass spectrometry; also called NP_000549.1
Experimental: as §1, §2

RPL36A = RPL36A (UniProt P83881 1-106); assay: as above
Experimental: as §1, §2

RCC2 = biological target: T6, RCC2 (UniProt Q9P258 1-522); assay: as above
T6 construct: Endogenous protein found in the co-IP by mass spectrometry; also called NP_061185.1
Experimental: as §1, §2

RPL35A = RPL35A (UniProt P18077 1-110); assay: as above
Experimental: as §1, §2

T2 sequence (Q14152 2-1382 limits assumed): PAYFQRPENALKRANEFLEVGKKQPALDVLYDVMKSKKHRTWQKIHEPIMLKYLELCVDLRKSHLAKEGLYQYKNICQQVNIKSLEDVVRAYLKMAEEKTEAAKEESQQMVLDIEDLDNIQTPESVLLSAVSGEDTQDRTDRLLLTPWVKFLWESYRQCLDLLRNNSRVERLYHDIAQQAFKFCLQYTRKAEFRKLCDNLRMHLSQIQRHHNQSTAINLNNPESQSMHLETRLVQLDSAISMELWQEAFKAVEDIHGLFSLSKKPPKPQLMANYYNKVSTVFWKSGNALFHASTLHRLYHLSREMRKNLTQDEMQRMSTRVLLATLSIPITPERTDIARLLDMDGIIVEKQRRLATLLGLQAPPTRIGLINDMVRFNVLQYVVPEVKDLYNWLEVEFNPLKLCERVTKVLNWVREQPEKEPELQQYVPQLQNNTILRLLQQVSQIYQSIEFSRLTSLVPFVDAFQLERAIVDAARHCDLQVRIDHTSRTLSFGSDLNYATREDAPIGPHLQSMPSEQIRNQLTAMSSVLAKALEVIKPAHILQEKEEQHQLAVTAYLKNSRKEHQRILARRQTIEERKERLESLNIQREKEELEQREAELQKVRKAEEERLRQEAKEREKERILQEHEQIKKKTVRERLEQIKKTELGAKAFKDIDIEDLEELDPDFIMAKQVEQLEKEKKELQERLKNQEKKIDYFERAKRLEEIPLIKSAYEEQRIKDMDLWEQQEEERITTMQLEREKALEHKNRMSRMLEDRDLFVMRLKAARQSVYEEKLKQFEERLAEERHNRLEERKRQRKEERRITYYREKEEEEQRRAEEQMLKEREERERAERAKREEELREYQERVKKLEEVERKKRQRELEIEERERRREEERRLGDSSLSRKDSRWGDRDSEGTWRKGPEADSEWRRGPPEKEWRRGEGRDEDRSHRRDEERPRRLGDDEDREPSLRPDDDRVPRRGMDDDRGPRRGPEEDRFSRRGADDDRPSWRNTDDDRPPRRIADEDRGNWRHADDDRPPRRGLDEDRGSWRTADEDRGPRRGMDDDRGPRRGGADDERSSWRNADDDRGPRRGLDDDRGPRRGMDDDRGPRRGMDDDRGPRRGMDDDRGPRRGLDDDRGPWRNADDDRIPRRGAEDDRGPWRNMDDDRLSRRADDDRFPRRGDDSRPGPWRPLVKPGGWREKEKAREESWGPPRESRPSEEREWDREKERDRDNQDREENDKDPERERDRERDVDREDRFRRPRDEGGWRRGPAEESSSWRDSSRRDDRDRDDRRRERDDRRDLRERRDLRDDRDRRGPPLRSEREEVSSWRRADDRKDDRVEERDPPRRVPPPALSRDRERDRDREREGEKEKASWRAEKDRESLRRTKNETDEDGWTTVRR
T5 sequence (P69905 2-142 limits assumed): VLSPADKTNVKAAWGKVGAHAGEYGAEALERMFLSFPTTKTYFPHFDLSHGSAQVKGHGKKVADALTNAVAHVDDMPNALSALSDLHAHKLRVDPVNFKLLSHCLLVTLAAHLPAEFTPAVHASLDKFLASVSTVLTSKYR
T6 sequence (Q9P258 whole entry): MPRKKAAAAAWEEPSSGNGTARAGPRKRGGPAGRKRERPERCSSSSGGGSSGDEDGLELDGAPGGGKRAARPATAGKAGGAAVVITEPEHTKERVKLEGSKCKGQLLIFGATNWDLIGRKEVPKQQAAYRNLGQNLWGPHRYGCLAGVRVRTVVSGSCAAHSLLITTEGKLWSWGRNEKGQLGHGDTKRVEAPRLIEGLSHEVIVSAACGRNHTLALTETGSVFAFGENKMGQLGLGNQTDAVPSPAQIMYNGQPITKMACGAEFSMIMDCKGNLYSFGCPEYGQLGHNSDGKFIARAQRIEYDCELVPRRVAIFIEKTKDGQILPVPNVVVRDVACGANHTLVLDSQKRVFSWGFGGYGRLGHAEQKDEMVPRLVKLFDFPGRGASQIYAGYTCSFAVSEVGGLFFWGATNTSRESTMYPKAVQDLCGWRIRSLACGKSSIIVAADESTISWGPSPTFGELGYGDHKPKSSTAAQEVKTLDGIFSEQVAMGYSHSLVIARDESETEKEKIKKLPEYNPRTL
T3 sequence (Q92841 whole entry): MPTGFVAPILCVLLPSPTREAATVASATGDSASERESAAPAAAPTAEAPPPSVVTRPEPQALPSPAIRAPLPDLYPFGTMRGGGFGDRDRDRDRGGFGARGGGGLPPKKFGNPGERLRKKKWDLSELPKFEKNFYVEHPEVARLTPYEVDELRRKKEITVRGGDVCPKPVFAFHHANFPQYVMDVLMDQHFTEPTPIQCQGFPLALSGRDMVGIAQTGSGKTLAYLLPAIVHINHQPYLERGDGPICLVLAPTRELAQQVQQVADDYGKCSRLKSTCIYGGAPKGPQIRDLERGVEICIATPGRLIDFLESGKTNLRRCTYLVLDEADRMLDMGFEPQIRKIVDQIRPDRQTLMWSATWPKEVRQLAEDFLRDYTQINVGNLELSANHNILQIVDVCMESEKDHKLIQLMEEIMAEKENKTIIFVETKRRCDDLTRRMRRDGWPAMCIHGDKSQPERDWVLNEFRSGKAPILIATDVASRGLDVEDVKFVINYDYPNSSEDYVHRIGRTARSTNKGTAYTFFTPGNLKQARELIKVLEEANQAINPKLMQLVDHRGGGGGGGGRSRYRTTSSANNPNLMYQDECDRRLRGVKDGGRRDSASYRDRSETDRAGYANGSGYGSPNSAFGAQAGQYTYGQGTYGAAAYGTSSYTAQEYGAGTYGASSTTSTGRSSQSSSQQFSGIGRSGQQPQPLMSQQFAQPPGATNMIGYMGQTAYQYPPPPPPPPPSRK

co-IP mass spectrometry count (CCT3): 0
co-IP mass spectrometry count (RPL38): 9
co-IP mass spectrometry count (RPS26): 6
co-IP mass spectrometry count (EIF3A): 2
B1: N-terminal FLAG tagged B3GNT2 (enzyme, human, UniProt Q9NY97 1-397, looked up)
chain: MSVGRRRIKLLGILMMANVFIYFIMEVSKSSSQEKNGKGEVIIPKEKFWKISTPPEAYWNREQEKLNRQYNPILSMLTNQTGEAGRLSNISHLNYCEPDLRVTSVVTGFNNLPDRFKDFLLYLRCRNYSLLIDQPDKCAKKPFLLLAIKSLTPHFARRQAIRESWGQESNAGNQTVVRVFLLGQTPPEDNHPDLSDMLKFESEKHQDILMWNYRDTFFNLSLKEVLFLRWVSTSCPDTEFVFKGDDDVFVNTHHILNYLNSLSKTKAKDLFIGDVIHNAGPHRDKKLKYYIPEVVYSGLYPPYAGGGGFLYSGHLALRLYHITDQVHLYPIDDVYTGMCLQKLGLVPEKHKGFRTFDIEEKNKNNICSYVDLMLVHSRKPQEMIDIWSQLQSAHLKC
notes: FLAG-tagged ORF overexpressed in cells; pulled down from lysate with mouse anti-FLAG; also called N-FLAG B3GNT2; N-term FLAG; not shown: N-terminal FLAG tag

co-IP/MS count, N-term FLAG (DDX17): 23
B2: N-terminal FLAG tagged B3GNT2 (enzyme, human, UniProt Q9NY97 1-397, looked up)
chain: MSVGRRRIKLLGILMMANVFIYFIMEVSKSSSQEKNGKGEVIIPKEKFWKISTPPEAYWNREQEKLNRQYNPILSMLTNQTGEAGRLSNISHLNYCEPDLRVTSVVTGFNNLPDRFKDFLLYLRCRNYSLLIDQPDKCAKKPFLLLAIKSLTPHFARRQAIRESWGQESNAGNQTVVRVFLLGQTPPEDNHPDLSDMLKFESEKHQDILMWNYRDTFFNLSLKEVLFLRWVSTSCPDTEFVFKGDDDVFVNTHHILNYLNSLSKTKAKDLFIGDVIHNAGPHRDKKLKYYIPEVVYSGLYPPYAGGGGFLYSGHLALRLYHITDQVHLYPIDDVYTGMCLQKLGLVPEKHKGFRTFDIEEKNKNNICSYVDLMLVHSRKPQEMIDIWSQLQSAHLKC
notes: FLAG-tagged ORF overexpressed in A375 cells; pulled down from the lysate with mouse anti-FLAG; also called N-FLAG B3GNT2; N-term FLAG; not shown: N-terminal FLAG tag

co-IP mass spectrometry count (RPL36): 0
co-IP mass spectrometry count (RPL11): 5
co-IP mass spectrometry count (RPS15A): 3
co-IP mass spectrometry count (LYZ): 3
co-IP mass spectrometry count (RPS17): 5
co-IP mass spectrometry count (RPL10A): 6
co-IP mass spectrometry count (HBA1): 3
co-IP mass spectrometry count (RPL36A): 3
co-IP mass spectrometry count (RCC2): 0
co-IP mass spectrometry count (RPL35A): 0
B3: N-terminal FLAG tagged B3GNT2 (enzyme, human, UniProt Q9NY97 1-397, looked up)
chain: MSVGRRRIKLLGILMMANVFIYFIMEVSKSSSQEKNGKGEVIIPKEKFWKISTPPEAYWNREQEKLNRQYNPILSMLTNQTGEAGRLSNISHLNYCEPDLRVTSVVTGFNNLPDRFKDFLLYLRCRNYSLLIDQPDKCAKKPFLLLAIKSLTPHFARRQAIRESWGQESNAGNQTVVRVFLLGQTPPEDNHPDLSDMLKFESEKHQDILMWNYRDTFFNLSLKEVLFLRWVSTSCPDTEFVFKGDDDVFVNTHHILNYLNSLSKTKAKDLFIGDVIHNAGPHRDKKLKYYIPEVVYSGLYPPYAGGGGFLYSGHLALRLYHITDQVHLYPIDDVYTGMCLQKLGLVPEKHKGFRTFDIEEKNKNNICSYVDLMLVHSRKPQEMIDIWSQLQSAHLKC
notes: FLAG-tagged ORF overexpressed in cells; bait of the anti-FLAG co-IP; also called N-FLAG B3GNT2; N-term FLAG; not shown: FLAG tag at the N-terminus

Source: patent publication US20240261333A1 (published 2024)
